The conditions of this data set: ubiquitination at K57.

As for ALKBH5: K57R, the degradation_or_half_life result is “increases”.
Take “ALKBH5: K57R (purified FLAG-tagged protein, in vitro demethylation assay)”: the enzymatic_activity entry is “no change”.

Source of the values: paper PMC10424212.
